Results reported in patent US20110092418A1 (FLOREKY INSTITUTE OF EXPERIMENTAL PHYSIOLOGY AND MEDICINE, published 2011).
No end group written: not given here.

Tests used:
LGR7 (RXFP1) receptor [1] = biological target: T1, LGR7 (RXFP1) receptor (UniProt Q9HBX9 1-757, limits assumed); experiment: whole cell competition binding against 100 pM [125I]-H2 relaxin, LGR7-transfected HEK293T cells
T1 construct: whole, on cells
T1 sequence (looked up): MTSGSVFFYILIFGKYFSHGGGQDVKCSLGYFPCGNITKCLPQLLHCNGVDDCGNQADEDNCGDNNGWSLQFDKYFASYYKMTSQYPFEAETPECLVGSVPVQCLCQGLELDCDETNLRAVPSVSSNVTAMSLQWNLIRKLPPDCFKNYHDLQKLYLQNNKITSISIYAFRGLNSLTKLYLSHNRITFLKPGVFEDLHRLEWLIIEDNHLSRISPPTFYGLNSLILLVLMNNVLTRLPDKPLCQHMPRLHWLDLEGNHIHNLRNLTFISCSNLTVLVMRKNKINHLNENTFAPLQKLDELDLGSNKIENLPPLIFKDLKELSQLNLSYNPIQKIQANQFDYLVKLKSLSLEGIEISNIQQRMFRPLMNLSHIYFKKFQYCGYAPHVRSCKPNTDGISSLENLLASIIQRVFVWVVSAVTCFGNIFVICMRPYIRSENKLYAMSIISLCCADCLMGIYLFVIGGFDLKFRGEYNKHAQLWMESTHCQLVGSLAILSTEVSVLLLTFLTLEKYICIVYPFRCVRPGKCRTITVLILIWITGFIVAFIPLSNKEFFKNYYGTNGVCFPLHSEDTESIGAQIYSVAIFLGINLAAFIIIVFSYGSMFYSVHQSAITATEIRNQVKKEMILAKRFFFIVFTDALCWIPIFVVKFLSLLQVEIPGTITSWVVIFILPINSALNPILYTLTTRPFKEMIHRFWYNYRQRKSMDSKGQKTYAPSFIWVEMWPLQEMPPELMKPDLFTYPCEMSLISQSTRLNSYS
Description: Non-specific binding was determined by addition of excess unlabelled relaxin (500 nM). Data were analysed using GraphPad Prism.

LGR7 (RXFP1) receptor [2] = biological target: T1, LGR7 (RXFP1) receptor; experiment: cell-based or functional assay
LGR8 (RXFP2) receptor = LGR8 (RXFP2) receptor (UniProt Q8WXD0 1-754, limits assumed); experiment: cell-based or functional assay
Sequence of LGR8 (RXFP2) receptor (Q8WXD0 whole entry): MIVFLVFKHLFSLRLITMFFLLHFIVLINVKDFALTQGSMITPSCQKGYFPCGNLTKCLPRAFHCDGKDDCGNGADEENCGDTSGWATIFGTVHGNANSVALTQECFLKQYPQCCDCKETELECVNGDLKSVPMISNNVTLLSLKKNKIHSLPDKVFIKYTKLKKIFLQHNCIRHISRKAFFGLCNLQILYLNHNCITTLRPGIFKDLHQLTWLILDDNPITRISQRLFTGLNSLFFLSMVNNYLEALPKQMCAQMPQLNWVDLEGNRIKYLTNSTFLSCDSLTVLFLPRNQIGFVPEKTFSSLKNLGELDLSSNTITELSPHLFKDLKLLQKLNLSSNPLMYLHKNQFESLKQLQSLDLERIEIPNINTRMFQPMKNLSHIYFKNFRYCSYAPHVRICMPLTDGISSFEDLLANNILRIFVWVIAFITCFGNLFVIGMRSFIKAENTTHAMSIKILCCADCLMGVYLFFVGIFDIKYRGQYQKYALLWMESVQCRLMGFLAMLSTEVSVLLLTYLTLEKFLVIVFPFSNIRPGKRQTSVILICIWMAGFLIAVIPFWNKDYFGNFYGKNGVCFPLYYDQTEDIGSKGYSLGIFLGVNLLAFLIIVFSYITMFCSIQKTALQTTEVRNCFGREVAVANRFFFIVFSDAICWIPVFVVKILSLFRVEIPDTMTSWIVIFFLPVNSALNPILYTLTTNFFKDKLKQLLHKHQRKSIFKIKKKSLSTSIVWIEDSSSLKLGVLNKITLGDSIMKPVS

Binder	pKi (LGR7 (RXFP1) receptor [1]) [pKi]	LGR7 cAMP pEC50 (LGR7 (RXFP1) receptor [2]) [pEC50]	LGR8 cAMP pEC50 (LGR8 (RXFP2) receptor) [pEC50]
human relaxin 3 (H3), wild-type; A + B chain (ligand, disulfide (positions not given here); also: A and B chains joined by disulphide bonds, places not given here, domain: B chain; Two-chain peptide hormone, A and B chains joined by disulphide bonds; also called H3 relaxin) chain 1: RAAPYGVRLCGREFIRAVIFTCGGSRW chain 2: DVLAGLSSSCCKWGCSKSEISSLC	7.88	9.36	
chimeric relaxin polypeptide H2 B chain/INSL5 A chain (designed binder, Synthetic two-chain chimera; The synthesis protocol is detailed only for H2-B/H1-A; also called H2-B/INSL5-A) chain 1: DSWMEEVIKLCGRELVRAQIAICGMSTWS chain 2: DLQTLCCTDGCSMTDLSALC	5.31	6.37	
human relaxin 2 (H2), wild-type; A + B chain (ligand, disulfide (positions not given here); also: A and B chains joined by disulphide bonds, places not given here, Two-chain peptide hormone, A and B chains joined by disulphide bonds; also called H2 relaxin) chain 1: DSWMEEVIKLCGRELVRAQIAICGMSTWS chain 2: QLYSALANKCCHVGCTKRSLARFC	9.03	10.3	9.13
chimeric relaxin polypeptide H2 B chain/H3 relaxin A chain (designed binder, Synthetic two-chain chimera; The synthesis protocol is detailed only for H2-B/H1-A; also called H2-B/H3-A) chain 1: DSWMEEVIKLCGRELVRAQIAICGMSTWS chain 2: DVLAGLSSSCCKWGCSKSEISSLC	6.8	8.1	5.34
chimeric relaxin polypeptide H2 B chain/INSL3 A chain (designed binder, Synthetic two-chain chimera; The synthesis protocol is detailed only for H2-B/H1-A; also called H2-B/INSL3-A) chain 1: DSWMEEVIKLCGRELVRAQIAICGMSTWS chain 2: AAATNPARYCCLSGCTQQDLLTLCPY	6.21	< 6	> 6
